Experiments:
[1] = biological target: acidic pH binding sites of MEF cells; assay: competition with 125I-α2M* binding to MEF cells at pH 5.5
[2] = biological target: acidic pH binding sites of PEA-13 cells; assay: competition with 125I-α2M* binding to PEA-13 cells at acidic pH
[3] = biological target: acidic pH binding sites of Mv1Lu cells; assay: Scatchard plot analysis of 125I-α2M* binding to Mv1Lu cells at pH 5
[4] = biological target: acidic pH binding sites of Mv1Lu cells; assay: concentration dependence of 125I-α2M* binding to Mv1Lu cells at pH 5

IC50 [1]: 50 nM | IC50 [2]: 120 nM | Kd [3]: 51 nM | sites/cell [3]: 1e+06 sites/cell | saturating concentration [4]: 120 nM
B1: α2M activated by methylamine (α2M*) (ligand, human, UniProt P01023 24-1474, looked up)
chain: SVSGKPQYMVLVPSLLHTETTEKGCVLLSYLNETVTVSASLESVRGNRSLFTDLEAENDVLHCVAFAVPKSSSNEEVMFLTVQVKGPTQEFKKRTTVMVKNEDSLVFVQTDKSIYKPGQTVKFRVVSMDENFHPLNELIPLVYIQDPKGNRIAQWQSFQLEGGLKQFSFPLSSEPFQGSYKVVVQKKSGGRTEHPFTVEEFVLPKFEVQVTVPKIITILEEEMNVSVCGLYTYGKPVPGHVTVSICRKYSDASDCHGEDSQAFCEKFSGQLNSHGCFYQQVKTKVFQLKRKEYEMKLHTEAQIQEEGTVVELTGRQSSEITRTITKLSFVKVDSHFRQGIPFFGQVRLVDGKGVPIPNKVIFIRGNEANYYSNATTDEHGLVQFSINTTNVMGTSLTVRVNYKDRSPCYGYQWVSEEHEEAHHTAYLVFSPSKSFVHLEPMSHELPCGHTQTVQAHYILNGGTLLGLKKLSFYYLIMAKGGIVRTGTHGLLVKQEDMKGHFSISIPVKSDIAPVARLLIYAVLPTGDVIGDSAKYDVENCLANKVDLSFSPSQSLPASHAHLRVTAAPQSVCALRAVDQSVLLMKPDAELSASSVYNLLPEKDLTGFPGPLNDQDNEDCINRHNVYINGITYTPVSSTNEKDMYSFLEDMGLKAFTNSKIRKPKMCPQLQQYEMHGPEGLRVGFYESDVMGRGHARLVHVEEPHTETVRKYFPETWIWDLVVVNSAGVAEVGVTVPDTITEWKAGAFCLSEDAGLGISSTASLRAFQPFFVELTMPYSVIRGEAFTLKATVLNYLPKCIRVSVQLEASPAFLAVPVEKEQAPHCICANGRQTVSWAVTPKSLGNVNFTVSAEALESQELCGTEVPSVPEHGRKDTVIKPLLVEPEGLEKETTFNSLLCPSGGEVSEELSLKLPPNVVEESARASVSVLGDILGSAMQNTQNLLQMPYGCGEQNMVLFAPNIYVLDYLNETQQLTPEIKSKAIGYLNTGYQRQLNYKHYDGSYSTFGERYGRNQGNTWLTAFVLKTFAQARAYIFIDEAHITQALIWLSQRQKDNGCFRSSGSLLNNAIKGGVEDEVTLSAYITIALLEIPLTVTHPVVRNALFCLESAWKTAQEGDHGSHVYTKALLAYAFALAGNQDKRKEVLKSLNEEAVKKDNSVHWERPQKPKAPVGHFYEPQAPSAEVEMTSYVLLAYLTAQPAPTSEDLTSATNIVKWITKQQNAQGGFSSTQDTVVALHALSKYGAATFTRTGKAAQVTIQSSGTFSSKFQVDNNNRLLLQQVSLPELPGEYSMKVTGEGCVYLQTSLKYNILPEKEEFPFALGVQTLPQTCDEPKAHTSFQISLSVSYTGSRSASNMAIVDVKMVSGFIPLKPTVKMLERSNHVSRTEVSSNHVLIYLDKVSNQTLSLFFTVLQDVPVRDLKPAIVKVYDYYETDEFAIAEYNAPCSKDLGNA
modifications: activated by methylamine; 125I-labelled where used as tracer

— US20050250692A1
